Key:
[1] = test system: Lewis lung carcinoma (LLC); experiment: Enhancement of cisplatin treatment effects in LLC allograft model (tumor size, survival); assay type: in vivo, C57BL/6J mice; conditions: for inhibiting the growth of the tumor: nanoparticles 100 nM (days 7, 10, 13) administered together with cisplatin 3 mg/kg (days 7, 12), on day 13
Procedure: In order to confirm whether the treatment effects of a conventionally used anticancer agent may be enhanced by normalizing abnormal blood vessels in a tumor, 100 nM of the TFG nanoparticles or TFMG nanoparticles was injected into the tail vein in a tumor animal model prepared in the same manner as in Example 2.1 on days 7, 10, and 13, cisplatin was injected at a concentration of 3 mg/kg on days 7 and 12, and the survival proportion was measured. An equal amount of phosphate buffered saline was injected into a negative control (Con), and an equal amount of cisplatin was injected alone into a positive control (Cis). Then, the tumor size was confirmed by obtaining tumors on days 9, 11, and 13. The results are illustrated in FIGS. 8 and 9.

[2] = test system: Lewis lung carcinoma (LLC); experiment: Inhibition of tumor proliferation and survival in LLC allograft tumor animal model; assay type: in vivo, C57BL/6J mice; conditions: 100 nM into the tail vein on days 7, 10, 13; for survival proportion: FIG. 3; for tumor growth inhibition effect: compared with the control, tumor obtained on day 14
Procedure: In order to confirm the effects of the TFG nanoparticles or TFMG nanoparticles on the proliferation of cancer cells, after a tumor animal model was prepared by allografting 2 to 5×10^5 cells of Lewis lung carcinoma (LLC) as a murine lung cancer cell line into 6- to 7-week-old C57BL/6J mice, 100 nM of the TFG nanoparticles or TFMG nanoparticles was injected into the tail vein on days 7, 10, and 13, and then the size and survival proportion of the tumor were observed by obtaining the tumor on day 14. The tumor size was measured by substitution into the formula “0.5×A×B^2 (A: diameter in the longest direction, and B: diameter in a direction vertical to the longest direction).” An equal amount of phosphate buffered saline was administered to a control (Con). Animal care and all experimental procedures were performed in accordance with the laws and regulations for animal experiments. In order to show a significant difference between the corresponding groups in at least 3 of all the experimental result values, an ANOVA verification was performed, and only values with statistical significance of P-values <0.05 were shown as the average value±standard deviations (SD). The results are illustrated in FIGS. 1 to 3.

[3] = test system: Lewis lung carcinoma (LLC); experiment: Inhibition of tumor metastasis into lungs and inguinal lymph nodes, LLC allograft model after tumor removal surgery; assay type: in vivo, C57BL/6J mice; conditions: compared with the control; for lymph node metastasis inhibition rate: inguinal lymph nodes, IHC, day 28; for metastasis of the tumor into the lungs inhibited: tumor removal surgery day 14, metastasis confirmed day 28
Procedure: In order to confirm whether the TFG nanoparticles or TFMG nanoparticles affected the inhibition of metastasis of tumor, a tumor animal model was prepared in the same manner as in Example 2.1, and then the TFG nanoparticles or TFMG nanoparticles were injected. Then, a tumor removal surgery was performed on day 14, and it was confirmed whether the tumor metastasized into the lungs and the inguinal lymph nodes (LNs) on day 28. The metastasis into the inguinal lymph nodes was confirmed using immunohistochemistry (IHC) analyses. More specifically, the lymph nodes obtained to confirm cytokeratin positive tumor cells were fixed with 3.7% paraformaldehyde (PFA), and then dehydrated by treatment with a 10 to 40% sucrose solution at each step. Then, after the permeability of cells was increased by treatment with 0.3% Triton X-100 and a blocking process was performed using a bovine serum albumin (BSA), the lymph nodes were treated with rat anti-CD31 (BD Biosciences), mouse anti-α-SMA (Abcam), mouse anti-pimonidazole (HPI), mouse anti-cytokeratin II (Millipore), or rabbit anti-LYVE-1 (Angiobio) antibodies, and reacted at 4° C. for 16 hours. Then, unbound antibodies were washed using phosphate buffered saline, and then treated with Alexa Fluor 488-, 568-, or 647-conjugated anti-mouse IgG (Invitrogen), Alexa Fluor 594- or 647-conjugated anti-rat IgG (Invitrogen), Alexa Fluor 488-, 568-, or 647-conjugated anti-rabbit IgG (Invitrogen) antibodies that were secondary antibodies to a fluorescent marker, and reacted at room temperature for 1 hour. Then, finally, cellular nuclei were stained by treatment with Hoechst33258 (Invitrogen) for 1 minute, and then observed using a confocal microscope, and a fluorescence value was quantified using ImageJ. In order to show a significant difference between the corresponding groups in at least 3 of all the experimental result values, an ANOVA verification was performed, and only values with statistical significance of P-values <0.05 were shown as the average value±standard deviations (SD). The results are illustrated in FIGS. 4 to 5.

[4] = test system: blood vessels in a tumor (Lewis lung carcinoma (LLC)); experiment: Structure and function of blood vessels in LLC tumor (IHC, pimonidazole hypoxia staining); assay type: in vivo, C57BL/6J mice; conditions: FIG. 7
Procedure: The structure and function of blood vessels in a tumor were analyzed using the tumor obtained in the same manner as in Example 2.1. More specifically, the obtained tumor was observed using a confocal microscope after fluorescent staining was performed through IHC analyses in the same manner as in Example 2.2. In order to measure the hypoxic state inside the tumor, 60 mg/kg of Hypoxyprobe-1™ (pimonidazole hydrochloride; PIMO, HPI) was administered through intraperitoneal injection, and 90 minutes later, the mouse was sacrificed and the tumor extracted. The extracted tumor was incised, and then stained with mouse anti-hypoxyprobe antibody (HPI), Alexa Fluor 488-, 568-, or 647-conjugated anti-mouse IgG (Invitrogen), and in order to measure the degree of leakage of blood vessels in the tumor, 40 mg/kg of Hoechst33258 (Invitrogen) was intravenously injected 5 minutes before the mouse was sacrificed. The prepared sample was obtained using a confocal microscope. The results are illustrated in FIGS. 6 and 7.

[5] = test system: naturally occurring tumor model (MMTV-PyMT gene transplanted mice); experiment: Inhibition of tumor proliferation in naturally occurring tumor model; assay type: in vivo; conditions: 100 nM into tail veins of 12-week-old mice; tumors obtained at 15 weeks
Procedure: More specifically, the sizes of all the distinct nodules of 12-week-old mice were measured, and the mice were grouped according to the sizes of the tumors. Then, 100 nM of the TFG nanoparticles or TFMG nanoparticles was injected into their tail veins, and the tumors were obtained when the mice became 15 weeks old. Then, the sizes of the tumors were measured in the same manner as in Example 2.1. The results are illustrated in FIG. 11.

[6] = test system: naturally occurring tumor model (MMTV-PyMT gene transplanted mice); experiment: Inhibition of tumor metastasis in naturally occurring tumor model; assay type: in vivo; conditions: compared to the control; 100 nM into tail veins at 12 weeks, confirmed at 15 weeks
Text: The results are illustrated in FIG. 12.

Row | Molecule | growth of the tumor inhibited ([1]; cisplatin administered alone, 3 mg/kg on days 7 and 12 (positive control)) | survival proportion [2] | tumor growth inhibition effect [2] | lymph node metastasis inhibition rate [3] | metastasis of the tumor into the lungs inhibited [3] | blood vessels covered with α-smooth muscle actin positive pericytes [4] | inhibiting the growth of the tumor [1] | number of nodules with tumors decreased [5] | sizes of the tumors decreased [5] | metastasis inhibition rate [6]
1 | N.N.[Cl][Pt][Cl] [cisplatin, reference compound] | 62.6% | – | – | – | – | – | – | – | – | –
2 | TFG nanoparticles: a TRAP-ferritin monomer fragment-PC-Gla fusion polypeptide; a polypeptide represented by SEQ ID NO: 1 (protein, nanoparticle assembly; TFG nanoparticle) MGGTTFLLRNASGHMSSQIRQNYSTDVEAAVNSLVNLYLQASYTYLSLGFYFDRDDVALEGVSHFFRELAEEKREGYERLLKMQNQRGGRIFLQDIKKPAEDEWGKTPDAMKAAMALEKKLNQALLDLHALGSARTDPHLCDFLETHFLDEEVKLIKKMGDHLTNLHRLGGGSEFVDGGGSGTSANSFLEELRHSSLERECIEEICDFEEAKEIFQNVDDTLAFWSKHVLEHHHHHH | – | increased | 28.2% | 76.9% | 83.4% | increased | 96.2% | 39.1% | 85% | 93.6%
3 | TFMG nanoparticles: a TRAP-ferritin monomer fragment-linker-PC-Gla fusion polypeptide; a polypeptide represented by SEQ ID NO: 2 (protein, nanoparticle assembly; TFMG nanoparticle) MGGTTFLLRNASGHMSSQIRQNYSTDVEAAVNSLVNLYLQASYTYLSLGFYFDRDDVALEGVSHFFRELAEEKREGYERLLKMQNQRGGRIFLQDIKKPAEDEWGKTPDAMKAAMALEKKLNQALLDLHALGSARTDPHLCDFLETHFLDEEVKLIKKMGDHLTNLHRLGGGSEFVDGGGSGTSGPLGLAGANSFLEELRHSSLERECIEEICDFEEAKEIFQNVDDTLAFWSKHVLEHHHHHH | – | increased | 27.0% | 78.1% | 86.4% | increased | 94.3% | 59% | 87.2% | 93.6%

From US11638741B2, “Composition for treating cancer or inhibiting cancer metastasis, including TFG or TFMG nanoparticles” (KYUNGPOOK NATIONAL UNIVERSITY INDUSTRY-ACADEMIC COOPERATION …, priority 2019, dated 2023)
